B1: KB_B01 monomeric VHH with C-terminal 6xHis tag and C-tag (VHH)
VHH: QVQLQESGGGLVQAGGSLRLSCAASGTPFSNNYMRWYRQAPGKQREWVAGFTSGGSTNYADSVKGRFTISRDNAEGTVYLQMDNLKPEDTAVYYCYFLDVWGQGTQVTVSS
notes: Single VHH unit from the E. coli periplasm
B2: BV-scFv (benchmark VHH BV at the N-terminus of 3D6 scFv) (bispecific antibody)
chain: EVQLVESGGGVVQPGGSLKLSCVASGTDFSINFIRWYRQAPGKQREFVAGFTATGNTNYADSMKGRFTISRDNTKNAVYLQIDSLKPEDTAVYYCYMLDKWGQGTQVTVSSGGGGSGGGGSGGGGSEVKLVESGGGLVKPGASLKLSCAASGFTFSNYGMSWVRQNSDKRLEWVASIRSGGGRTYYSDNVKGRFTISRENAKNTLYLQMSSLKSEDTALYYCVRYDHYSGSSDYWGQGTTVTVSGGGGSGGGGSGGGGSYVVMTQTPLTLSVTIGQPASISCKSSQSLLDSDGKTYLNWLLQRPGQSPKRLIYLVSKLDSGVPDRFTGSGSGTDFTLKISRIEAEDLGLYYCWQGTHFPRTFGGGTKLEIKGSENLYFQSHHHHHH
B3: scFv-KB_B01 (3D6 scFv at the N-terminus of KB_B01) (bispecific antibody)
chain: EVKLVESGGGLVKPGASLKLSCAASGFTFSNYGMSWVRQNSDKRLEWVASIRSGGGRTYYSDNVKGRFTISRENAKNTLYLQMSSLKSEDTALYYCVRYDHYSGSSDYWGQGTTVTVSGGGGSGGGGSGGGGSYVVMTQTPLTLSVTIGQPASISCKSSQSLLDSDGKTYLNWLLQRPGQSPKRLIYLVSKLDSGVPDRFTGSGSGTDFTLKISRIEAEDLGLYYCWQGTHFPRTFGGGTKLEIKGGGGSGGGGSGGGGSQVQLQESGGGLVQAGGSLRLSCAASGTPFSNNYMRWYRQAPGKQREWVAGFTSGGSTNYADSVKGRFTISRDNAEGTVYLQMDNLKPEDTAVYYCYFLDVWGQGTQVTVSSGSENLYFQSHHHHHH
notes: also called scFv-VHH
B4: KB_B01-scFv (KB_B01 at the N-terminus of 3D6 scFv) (bispecific antibody)
chain: QVQLQESGGGLVQAGGSLRLSCAASGTPFSNNYMRWYRQAPGKQREWVAGFTSGGSTNYADSVKGRFTISRDNAEGTVYLQMDNLKPEDTAVYYCYFLDVWGQGTQVTVSSGGGGSGGGGSGGGGSEVKLVESGGGLVKPGASLKLSCAASGFTFSNYGMSWVRQNSDKRLEWVASIRSGGGRTYYSDNVKGRFTISRENAKNTLYLQMSSLKSEDTALYYCVRYDHYSGSSDYWGQGTTVTVSGGGGSGGGGSGGGGSYVVMTQTPLTLSVTIGQPASISCKSSQSLLDSDGKTYLNWLLQRPGQSPKRLIYLVSKLDSGVPDRFTGSGSGTDFTLKISRIEAEDLGLYYCWQGTHFPRTFGGGTKLEIKGSENLYFQSHHHHHH
notes: also called VHH-scFv
B5: scFv-BV (3D6 scFv at the N-terminus of benchmark VHH BV) (bispecific antibody)
chain: EVKLVESGGGLVKPGASLKLSCAASGFTFSNYGMSWVRQNSDKRLEWVASIRSGGGRTYYSDNVKGRFTISRENAKNTLYLQMSSLKSEDTALYYCVRYDHYSGSSDYWGQGTTVTVSGGGGSGGGGSGGGGSYVVMTQTPLTLSVTIGQPASISCKSSQSLLDSDGKTYLNWLLQRPGQSPKRLIYLVSKLDSGVPDRFTGSGSGTDFTLKISRIEAEDLGLYYCWQGTHFPRTFGGGTKLEIKGGGGSGGGGSGGGGSEVQLVESGGGVVQPGGSLKLSCVASGTDFSINFIRWYRQAPGKQREFVAGFTATGNTNYADSMKGRFTISRDNTKNAVYLQIDSLKPEDTAVYYCYMLDKWGQGTQVTVSSGSENLYFQSHHHHHH
notes: also called scFc-BV

Columns and labels:
[1] = target: T1, His-tagged ectodomain of human transferrin receptor 1 (hTfR1, R121-F760) (human, UniProt P02786 121-760); assay: SPR; hTfR1 captured on amine-coupled hTf, binder as analyte
T1 construct: Made in CHO cells; Biotinylated for some uses; also called human TfR1
Method: (§1) The contact time was 150 s for each concentration at […] with a final dissociation step of 500 s. […] The data with respect to the association rate constant (ka), the dissociation rate constant (kd) and the equilibrium dissociation constant (KD) was evaluated using Biacore T200 software evaluation tool applying a Langmuir 1:1 model.

[2] = target: T1, His-tagged ectodomain of human …; assay: SPR Biacore T200 single-cycle; hTfR1 captured on amine-coupled hTf, binder as analyte; 1:1 model
Method: as §1

[3] = target: T1, His-tagged ectodomain of human …; assay: SPR Biacore 8K single-cycle; hTfR1 amine-coupled to CM5 chip, fusion as analyte
[4] = target: T2, His-tagged ectodomain of mouse transferrin receptor 1 (mTfR1, S122-F763) (mouse, UniProt Q62351 122-763); assay: ELISA on coated TfR1 ectodomain; 125I-labelled or original sample, anti-VHH detection
T2 construct: also called mouse TfR1
Method: Briefly, high-binding half-area 96-well plates (Costar 3690, Merck) were coated with ectodomains of hTfR1 and mTfR1 at […] (in PBS pH 7.4). and left over night at 4° C. Plates were blocked for 1 h using 1% BSA 0.05% Tween®20 (Merck) in PBS.

T2 sequence (Q62351 other isoform, or with tags, fused parts or gaps limits assumed): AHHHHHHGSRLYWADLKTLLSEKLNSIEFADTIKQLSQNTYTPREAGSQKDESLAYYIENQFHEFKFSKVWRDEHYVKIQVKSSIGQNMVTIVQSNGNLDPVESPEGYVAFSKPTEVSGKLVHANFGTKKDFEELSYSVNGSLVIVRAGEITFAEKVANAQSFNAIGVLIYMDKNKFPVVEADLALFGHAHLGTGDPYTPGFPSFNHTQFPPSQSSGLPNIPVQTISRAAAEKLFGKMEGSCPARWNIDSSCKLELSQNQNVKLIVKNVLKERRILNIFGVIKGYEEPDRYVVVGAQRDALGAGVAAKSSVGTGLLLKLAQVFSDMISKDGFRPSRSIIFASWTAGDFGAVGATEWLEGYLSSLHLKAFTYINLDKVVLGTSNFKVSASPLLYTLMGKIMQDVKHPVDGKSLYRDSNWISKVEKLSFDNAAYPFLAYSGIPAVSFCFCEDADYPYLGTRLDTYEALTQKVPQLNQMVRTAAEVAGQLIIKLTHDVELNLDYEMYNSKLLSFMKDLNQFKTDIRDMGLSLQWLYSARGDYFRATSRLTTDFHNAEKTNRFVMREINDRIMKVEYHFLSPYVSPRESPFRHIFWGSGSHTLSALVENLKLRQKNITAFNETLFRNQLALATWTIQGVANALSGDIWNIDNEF
T1 sequence (P02786 other isoform, or with tags, fused parts or gaps limits assumed): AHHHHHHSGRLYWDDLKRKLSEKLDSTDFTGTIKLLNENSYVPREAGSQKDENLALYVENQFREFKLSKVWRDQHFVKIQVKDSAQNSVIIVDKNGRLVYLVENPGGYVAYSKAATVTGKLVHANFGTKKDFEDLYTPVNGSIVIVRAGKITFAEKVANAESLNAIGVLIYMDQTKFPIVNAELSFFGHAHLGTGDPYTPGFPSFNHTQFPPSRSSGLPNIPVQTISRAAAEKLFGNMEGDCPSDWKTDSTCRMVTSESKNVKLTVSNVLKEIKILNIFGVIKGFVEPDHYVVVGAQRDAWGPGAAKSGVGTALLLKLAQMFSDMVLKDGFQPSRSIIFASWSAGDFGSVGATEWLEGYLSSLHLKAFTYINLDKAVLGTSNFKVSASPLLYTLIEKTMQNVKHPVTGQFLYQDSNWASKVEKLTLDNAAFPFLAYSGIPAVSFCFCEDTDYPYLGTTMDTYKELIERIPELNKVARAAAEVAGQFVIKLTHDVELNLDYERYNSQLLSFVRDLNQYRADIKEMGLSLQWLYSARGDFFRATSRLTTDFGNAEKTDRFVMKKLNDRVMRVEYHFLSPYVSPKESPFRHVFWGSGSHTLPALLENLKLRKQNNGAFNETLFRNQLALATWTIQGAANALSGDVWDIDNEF

Binder | fold lower affinity (KD) than BA1 [1] | Kd [2] | koff [2] | kon [2] | Kd [3] | koff [3] | kon [3] | binding result [4]
B1 | 166 fold | 3.31 nM | 0.00198 s⁻¹ | 597000 M⁻¹ s⁻¹ |  |  |  | 
B2 |  |  |  |  | 0.189 nM | 0.000117 s⁻¹ | 617000 M⁻¹ s⁻¹ | binds
B3 |  |  |  |  | 1.8 nM | 0.000259 s⁻¹ | 144000 M⁻¹ s⁻¹ | binds
B4 |  |  |  |  | 0.845 nM | 0.00045 s⁻¹ | 535000 M⁻¹ s⁻¹ | binds
B5 |  |  |  |  | 0.698 nM | 0.000122 s⁻¹ | 175000 M⁻¹ s⁻¹ | binds

— patent publication US20260116990A1 (KEY2BRAIN, published 2026)
